Measured values reported in patent US9238034B2, “FN14 antagonists and therapeutic uses thereof” (THE TRANSLATIONAL GENOMICS RESEARCH INSTITUTE, priority 2013, dated 2016).

Assays:
Fn14 = target: T1, Fn14 (Homo sapiens, UniProt Q9NP84); test: Surface Plasmon Resonance assay, Fn14-Fc sensor surface; type: binding; settings: SPR, 0 to 50 μM
T1 construct: the human Fc fragment-tagged Fn14 extracellular domain (R&D Systems) was captured
T1 sequence (Q9NP84 28-80 limits assumed): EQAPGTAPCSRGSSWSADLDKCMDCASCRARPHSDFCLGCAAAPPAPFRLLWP
Protocol: (§1) Surface Plasmon Resonance (SPR) Assay. The binding affinity of at least one of the compounds (e.g., L524-0366) to TWEAK and Fn14-Fx was determined using a BIAcore T100 optical biosensor (GE Healthcare) at 25 degrees Celsius at the Arizona Proteomics Consortium. Recombinant human TWEAK (20 μg/mL in 10 mM HEPES pH 7.4, 150 mM NaCl, 3 mM EDTA, 0.05% Tween 20) or recombinant human Fn14-Fc (20 μg/mL in 10 mM NaOAc pH 4.0) were covalently coupled to separate flow cells on a BIAcore CM5 sensor chip using standard amine coupling chemistry as per manufacturer's protocol. Final immobilization levels were 6000 Response Units (RU) for TWEAK and 13,000 RU for FN14-Fc. The first flow path of the chip was treated with the same coupling and blocking reagents without protein and was used as a reference for each binding cycle. Functionality of the TWEAK and the Fn14-Fc sensor surfaces were verified by injecting Fn14-Fc and TWEAK over them respectively. Serial dilutions of L524-0366 or cycloheximide (control) from 0 to 50 μM were made in running buffer (10 mM HEPES pH 7.4, 150 mM NaCl, 3 mM EDTA, 1% DMSO). […] Equilibrium dissociation constants for the small molecules were calculated by fitting the double reference subtracted data to Req=((CRmax)/(KD+C))+RI, where RI is the bulk refractive index contribution.

TWEAK = target: T2, TWEAK (Homo sapiens, UniProt O43508); test: Surface Plasmon Resonance assay, TWEAK sensor surface; type: binding; settings: SPR, 0 to 50 μM
T2 sequence (O43508 94-249 limits assumed): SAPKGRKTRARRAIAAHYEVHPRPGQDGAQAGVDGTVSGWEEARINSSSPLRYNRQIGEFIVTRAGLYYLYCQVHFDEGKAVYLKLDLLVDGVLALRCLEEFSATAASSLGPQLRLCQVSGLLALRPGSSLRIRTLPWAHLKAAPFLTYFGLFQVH
Protocol: as §1

Fn14 signaling [1] = test: NF-κB luciferase reporter assay with sTWEAK variants, HEK293 NF-κB luciferase cells overexpressing full length Fn14; type: cell-based, human; settings: HEK293 NF-κB luciferase cells stably overexpressing full length Fn14, 5 hr
Protocol: (§2) NF-κB luciferase reporter Assay. The capacity of sTWEAK or sTWEAK variants to activate Fn14 signaling was evaluated using engineered reporter cell lines that express luciferase upon NF-κB activation. Two reporter cell lines were utilized for these experiments. HEK293 NF-κB luciferase (courtesy of Dr. Jeff Winkles) were generated by transfecting HEK293 cells with a reporter plasmid containing 5 copies of a consensus NF-κB binding site upstream of a minimal CMV promoter driving expression of firefly luciferase. The second cell line, designated HEK293 NF-κB luciferase Fn14 FL, was generated by stably transfecting the HEK293 NF-κB luciferase cell line with full length Fn14. To assay the binding of sTWEAK or sTWEAK variants to Fn14, reporter cells were seeded in tissue culture treated white 96-well plates at 1×10^4 cells/well in 80 μL Opti-MEM media (Invitrogen) and incubated for 48 hr at 37° C. After 48 hr incubation, 20 μL of 5× purified recombinant TWEAK (Peprotech Inc.; 150 ng/mL) in 1 mg/mL BSA in PBS was added to each well and incubated for 5 hr at 37° C. as positive control. Similarly, equivalent amounts of sTWEAK or sTWEAK variant prepared via IVTTas determined using ELISA assay described above was added in 20 μl. […] At the end of 5 hr incubation, the luminescent signal was determined using Bright-Glo assay kit (Promega, Madison, Wis.) according to the manufacturer's instructions.

Fn14 signaling [2] = test: NF-κB luciferase reporter assay with sTWEAK variants, HEK293 NF-κB luciferase cells; type: cell-based, human; settings: 5 hr
Protocol: as §2

C[C@@H]1C[C@@H]([C@H](O)CC2CC(=O)NC(=O)C2)C(=O)[C@@H](C)C1 [cycloheximide, reference compound]
binding to Fn14 (Fn14): did not show significant binding | binding to TWEAK (TWEAK): did not show significant binding

B1: sTWEAK Y176A: soluble form of TWEAK (amino acids K97-H249) with Y176A substitution, made by IVTT (protein, UniProt O43508 97-249, looked up, variant Y176A)
chain: KGRKTRARRAIAAHYEVHPRPGQDGAQAGVDGTVSGWEEARINSSSPLRYNRQIGEFIVTRAGLYYLYCQVHFDEGKAVALKLDLLVDGVLALRCLEEFSATAASSLGPQLRLCQVSGLLALRPGSSLRIRTLPWAHLKAAPFLTYFGLFQVH
induction of luciferase expression less relative to cells stimulated with sTWEAK (Fn14 signaling [1]): 98% | luciferase expression less than cells stimulated with sTWEAK (Fn14 signaling [2]): 87%

B2: sTWEAK Y176F: soluble form of TWEAK (amino acids K97-H249) with Y176F substitution, made by IVTT (protein, UniProt O43508 97-249, looked up, variant Y176F)
chain: KGRKTRARRAIAAHYEVHPRPGQDGAQAGVDGTVSGWEEARINSSSPLRYNRQIGEFIVTRAGLYYLYCQVHFDEGKAVFLKLDLLVDGVLALRCLEEFSATAASSLGPQLRLCQVSGLLALRPGSSLRIRTLPWAHLKAAPFLTYFGLFQVH
induction of luciferase expression less relative to cells stimulated with sTWEAK (Fn14 signaling [1]): 98% | luciferase expression less than cells stimulated with sTWEAK (Fn14 signaling [2]): 100%
